# Test system: Escherichia coli TOP10
# Experiment: shrunken log2 fold change of peptide-encoding DNA abundance (4.5 h post-induction vs induction); higher = less antimicrobial activity (less host growth inhibition)
# Conditions: time post-induction: 4.5 h; library: site-saturation at positions 5, 18, 19, 20
# 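Note: peptides expressed intracellularly from a pBAD plasmid library in pooled LB shake-flask culture, induced with 0.3% L-arabinose, DNA abundance read by NGS, three biological replicates, DESeq2 with apeglm shrinkage.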
row,Sequence,shrunken log2 fold change
1,RRIRFRPPRLPRPRPRPAYGPRP,-0.41
2,RRIRCRPPRLPRPRPRPKHPPRP,-0.0559
3,RRIRGRPPRLPRPRPRPMKTPRP,0.494
4,RRIRMRPPRLPRPRPRPPCWPRP,0.162
5,RRIRERPPRLPRPRPRPDGRPRP,-0.03
6,RRIRNRPPRLPRPRPRPGYQPRP,-0.0454
7,RRIRFRPPRLPRPRPRPLQAPRP,0.285
8,RRIRCRPPRLPRPRPRPFVCPRP,-0.242
9,RRIRARPPRLPRPRPRPNVPPRP,0.0126
10,RRIRSRPPRLPRPRPRPKHYPRP,-0.233
11,RRIRIRPPRLPRPRPRPWCRPRP,-0.521
12,RRIRGRPPRLPRPRPRPCLPPRP,-0.0995
13,RRIRWRPPRLPRPRPRPRMNPRP,-0.111
14,RRIRCRPPRLPRPRPRPDSPPRP,-0.353
15,RRIRHRPPRLPRPRPRPGTDPRP,-0.0998
16,RRIRARPPRLPRPRPRPKFHPRP,0.133
17,RRIRKRPPRLPRPRPRPLTIPRP,0.146
18,RRIRHRPPRLPRPRPRPGICPRP,-0.154
19,RRIRDRPPRLPRPRPRPEWNPRP,0.546
20,RRIRPRPPRLPRPRPRPVDQPRP,-0.256
21,RRIRQRPPRLPRPRPRPIYIPRP,-0.46
22,RRIRSRPPRLPRPRPRPWWHPRP,-0.166

row,Sequence,shrunken log2 fold change
1,RRIRMRPPRLPRPRPRPVHIPRP,0.00544
2,RRIRGRPPRLPRPRPRPTVEPRP,1.27
3,RRIRHRPPRLPRPRPRPRELPRP,0.234
4,RRIRGRPPRLPRPRPRPNYGPRP,0.07
5,RRIRERPPRLPRPRPRPCQIPRP,-0.193
6,RRIRSRPPRLPRPRPRPPWKPRP,-0.0556
7,RRIRRRPPRLPRPRPRPSLCPRP,1.05
8,RRIRGRPPRLPRPRPRPTFVPRP,0.782
9,RRIRMRPPRLPRPRPRPIRVPRP,0.335
10,RRIRRRPPRLPRPRPRPPNWPRP,0.581
11,RRIRVRPPRLPRPRPRPFALPRP,0.0564
12,RRIRKRPPRLPRPRPRPMNQPRP,-0.153
13,RRIRQRPPRLPRPRPRPRRMPRP,0.455
14,RRIRSRPPRLPRPRPRPQCDPRP,-0.193
15,RRIRTRPPRLPRPRPRPFHFPRP,-0.303
16,RRIRVRPPRLPRPRPRPQQFPRP,0.0811
17,RRIRSRPPRLPRPRPRPVTAPRP,-0.0769
18,RRIRRRPPRLPRPRPRPCYAPRP,1.3
19,RRIRMRPPRLPRPRPRPVSGPRP,0.594
20,RRIRLRPPRLPRPRPRPHWHPRP,-0.249
21,RRIRSRPPRLPRPRPRPVCIPRP,-0.414
22,RRIRWRPPRLPRPRPRPMKTPRP,-0.0156

row,Sequence,shrunken log2 fold change
1,RRIRERPPRLPRPRPRPHITPRP,-0.99
2,RRIRIRPPRLPRPRPRPCYSPRP,-0.0549
3,RRIRDRPPRLPRPRPRPTQWPRP,0.0594
4,RRIRRRPPRLPRPRPRPHCWPRP,0.11
5,RRIRNRPPRLPRPRPRPCTAPRP,0.022
6,RRIRCRPPRLPRPRPRPITDPRP,-0.442
7,RRIRCRPPRLPRPRPRPCASPRP,0.0454
8,RRIRCRPPRLPRPRPRPMIEPRP,-0.117
9,RRIRPRPPRLPRPRPRPYQAPRP,-0.0753
10,RRIRERPPRLPRPRPRPVRYPRP,-0.582
11,RRIRRRPPRLPRPRPRPTNKPRP,0.149
12,RRIRGRPPRLPRPRPRPVMSPRP,0.401
13,RRIRKRPPRLPRPRPRPMTQPRP,-0.0547
14,RRIRARPPRLPRPRPRPVRMPRP,0.618
15,RRIRPRPPRLPRPRPRPQEAPRP,0.0203
16,RRIRERPPRLPRPRPRPNDWPRP,-0.133
17,RRIRYRPPRLPRPRPRPISCPRP,-0.202
18,RRIRIRPPRLPRPRPRPAWKPRP,0.123
19,RRIRGRPPRLPRPRPRPACDPRP,0.964
20,RRIRIRPPRLPRPRPRPWQTPRP,0.0238
21,RRIRRRPPRLPRPRPRPWAPPRP,0.043
22,RRIRLRPPRLPRPRPRPNLWPRP,0.321

row,Sequence,shrunken log2 fold change
1,RRIRLRPPRLPRPRPRPMPGPRP,0.437
2,RRIRMRPPRLPRPRPRPNYCPRP,-0.0723
3,RRIRRRPPRLPRPRPRPQITPRP,0.0752
4,RRIRRRPPRLPRPRPRPYQTPRP,-0.071
5,RRIRWRPPRLPRPRPRPRQHPRP,0.251
6,RRIRRRPPRLPRPRPRPWIHPRP,-0.147
7,RRIRGRPPRLPRPRPRPGVKPRP,0.588
8,RRIRARPPRLPRPRPRPEVCPRP,1.25
9,RRIRGRPPRLPRPRPRPHVHPRP,-0.332
10,RRIRGRPPRLPRPRPRPGEFPRP,0.329
11,RRIRRRPPRLPRPRPRPHNCPRP,0.163
12,RRIRQRPPRLPRPRPRPKMKPRP,-0.08
13,RRIRMRPPRLPRPRPRPEWYPRP,0.0183
14,RRIRIRPPRLPRPRPRPPQDPRP,0.0725
15,RRIRSRPPRLPRPRPRPWAQPRP,-0.0414
16,RRIRYRPPRLPRPRPRPTCSPRP,-0.0789
17,RRIRLRPPRLPRPRPRPLNMPRP,-0.461
18,RRIRLRPPRLPRPRPRPMQQPRP,0.0192
19,RRIRFRPPRLPRPRPRPKDCPRP,0.104
20,RRIRMRPPRLPRPRPRPQYCPRP,-0.0737
21,RRIRPRPPRLPRPRPRPTTIPRP,-0.223
22,RRIRSRPPRLPRPRPRPSFVPRP,-0.705

row,Sequence,shrunken log2 fold change
1,RRIRARPPRLPRPRPRPWQSPRP,0.183
2,RRIRSRPPRLPRPRPRPGCEPRP,0.145
3,RRIRIRPPRLPRPRPRPHRDPRP,-0.236
4,RRIRVRPPRLPRPRPRPPTFPRP,0.0282
5,RRIRFRPPRLPRPRPRPKGMPRP,-0.243
6,RRIRYRPPRLPRPRPRPVFDPRP,-1.18
7,RRIRPRPPRLPRPRPRPQAGPRP,0.00187
8,RRIRPRPPRLPRPRPRPHMPPRP,-0.154
9,RRIRERPPRLPRPRPRPSLRPRP,-0.313
10,RRIRMRPPRLPRPRPRPAQYPRP,0.377
11,RRIRDRPPRLPRPRPRPSHMPRP,-0.0936
12,RRIRCRPPRLPRPRPRPECMPRP,0.119
13,RRIRDRPPRLPRPRPRPYVAPRP,-0.0638
14,RRIRKRPPRLPRPRPRPPGRPRP,2.07
15,RRIRKRPPRLPRPRPRPFRIPRP,-0.0356
16,RRIRVRPPRLPRPRPRPCLFPRP,-0.592
17,RRIRLRPPRLPRPRPRPNVYPRP,-0.186
18,RRIRQRPPRLPRPRPRPSLPPRP,0.289
19,RRIRTRPPRLPRPRPRPRGEPRP,0.152
20,RRIRLRPPRLPRPRPRPFGEPRP,0.084
21,RRIRGRPPRLPRPRPRPALKPRP,0.504

# Source: the supplement of paper PMC9112550, “Optimization of the antimicrobial peptide Bac7 by deep mutational scanning” (BMC Biology, 2022)
